The values that follow are results of earlier work, collected in PMC4467374.

One may read the Kd as a measure of binding affinity in units of concentration.

Data set [1] addresses histone H3 K4me3/K9me3 peptide (Homo sapiens) (UniProt P68431).
For data set [2], the target named is histone H3 K9me3 peptide (Homo sapiens) (UniProt P68431).

UHRF1 TTD, sequence (Q96T88 124-285): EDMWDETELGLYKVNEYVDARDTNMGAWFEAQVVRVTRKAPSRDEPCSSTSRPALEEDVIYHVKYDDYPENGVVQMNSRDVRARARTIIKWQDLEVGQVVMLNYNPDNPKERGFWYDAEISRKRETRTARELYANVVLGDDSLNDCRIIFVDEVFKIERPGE

For UHRF1 TTD (from UniProt Q96T88), the Kd in data set [1] is 90 µM; in data set [2] it was 20 µM.
